Experimental findings from the supplement of paper PMC9233669 are described below.

For one data set, the system named is biotinyl-Ile-oxazolone. The data set can be described thus: self-aminoacylation, catalytic enhancement (BIO) (fold over background); higher = more active; k-Seq, kA / k0A0; sequences stand for … in GGGAAUGGAUCCACAUCUACGAAUUC…UUCACUGCAGACUUGACGAAGCUG
The gist of the method: (§1)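 Mutagenized RNA pools with a 21-nt variable region (0.43 μM) reacted with each biotinyl-aminoacyl-oxazolone at 2–1250 μM. Reactions ran in 50 μL HEPES/NaCl/KCl/MgCl2/CaCl2 buffer with 5% acetonitrile, pH 6.9–7.0, for 90 minutes at room temperature. Streptavidin-captured RNA was quantified by triplicate qPCR and Illumina sequencing, and per-sequence fraction reacted was fit to a pseudo-first-order model with 1000 bootstraps. Catalytic enhancement is median kA divided by the uncatalyzed rate, the low-activity peak of a bimodal Gaussian fit.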

Another data set has as its system biotinyl-Val-oxazolone. The data set can be described thus: self-aminoacylation, catalytic enhancement (BVO) (fold over background); higher = more active; k-Seq, kA / k0A0; sequences stand for … in GGGAAUGGAUCCACAUCUACGAAUUC…UUCACUGCAGACUUGACGAAGCUG
The gist of the method: as §1

For another data set, the system named is biotinyl-Met-oxazolone. The data set can be described thus: self-aminoacylation, catalytic enhancement (BMO) (fold over background); higher = more active; k-Seq, kA / k0A0; sequences stand for … in GGGAAUGGAUCCACAUCUACGAAUUC…UUCACUGCAGACUUGACGAAGCUG
The gist of the method: as §1

The next data set deals with biotinyl-Phe-oxazolone. The data set is described as follows: self-aminoacylation, catalytic enhancement (BFO) (fold over background); higher = more active; k-Seq, kA / k0A0; sequences stand for … in GGGAAUGGAUCCACAUCUACGAAUUC…UUCACUGCAGACUUGACGAAGCUG
The gist of the method: as §1

Another data set deals with biotinyl-Trp-oxazolone. The data set is described as follows: self-aminoacylation, catalytic enhancement (BWO) (fold over background); higher = more active; k-Seq, kA / k0A0; sequences stand for … in GGGAAUGGAUCCACAUCUACGAAUUC…UUCACUGCAGACUUGACGAAGCUG
The gist of the method:
as §1

The next data set concerns biotinyl-Leu-oxazolone. The data set can be described thus: self-aminoacylation, catalytic enhancement (BLO) (fold over background); higher = more active; k-Seq, kA / k0A0; sequences stand for … in GGGAAUGGAUCCACAUCUACGAAUUC…UUCACUGCAGACUUGACGAAGCUG
The procedure, abridged:
as §1

This sample holds only a part of the variants without activity.

As for “CCACACUUCAACCCAUCGGUC [Fam1B.1 aminoacylation ribozyme variant]”, the self-aminoacylation is 1.34 in the data set with biotinyl-Ile-oxazolone; 1.72 in the data set with biotinyl-Val-oxazolone; 1.11 in the data set with biotinyl-Met-oxazolone; 0.791 in the data set on biotinyl-Phe-oxazolone; 1.04 in the data set with biotinyl-Trp-oxazolone; 1.24 in the data set with biotinyl-Leu-oxazolone.

Take “AUUACCCUAUUCAUCGAGUGA [Fam2.1 aminoacylation ribozyme variant]”: the self-aminoacylation in the data set on biotinyl-Ile-oxazolone came out at 2.37; in the data set on biotinyl-Val-oxazolone, 2.66; in the data set on biotinyl-Met-oxazolone, 4.25; in the data set on biotinyl-Phe-oxazolone, 17.3; in the data set on biotinyl-Trp-oxazolone, 6.86; with biotinyl-Leu-oxazolone, 4.15.

Regarding “AUUUAGCUAGGUCAUCGGGUG [Fam2.2 aminoacylation ribozyme variant]”, the self-aminoacylation with biotinyl-Ile-oxazolone is 3.83; in the data set on biotinyl-Val-oxazolone, 4; in the data set with biotinyl-Met-oxazolone it was 4.72; in the data set with biotinyl-Phe-oxazolone it was 50.1; in the data set on biotinyl-Trp-oxazolone, 6.01; in the data set with biotinyl-Leu-oxazolone, 5.39.

In the case of “AUUUACCUAGGUCAUCGGGUG [Fam2.2 aminoacylation ribozyme variant]”, the self-aminoacylation came to 18.3 in the data set on biotinyl-Ile-oxazolone; 15.4 in the data set on biotinyl-Val-oxazolone; 33.2 with biotinyl-Met-oxazolone; 235 with biotinyl-Phe-oxazolone; 26.1 in the data set with biotinyl-Trp-oxazolone; 45 in the data set with biotinyl-Leu-oxazolone.

For the sequence “GUACUUCAAACAAUCGGUCUG [Fam1A.1 aminoacylation ribozyme variant]”, the self-aminoacylation in the data set with biotinyl-Ile-oxazolone was determined as 1.54; with biotinyl-Val-oxazolone it was 1.42; in the data set with biotinyl-Met-oxazolone, 1.53; with biotinyl-Phe-oxazolone it was 51.3; in the data set with biotinyl-Trp-oxazolone it was 30.5; in the data set on biotinyl-Leu-oxazolone it was 2.15.

With “AUUACCUUGGUAAUCGAGUGA [Fam2.1 aminoacylation ribozyme variant]”, the self-aminoacylation in the data set with biotinyl-Ile-oxazolone is 3.52; with biotinyl-Val-oxazolone, 3.87; in the data set with biotinyl-Met-oxazolone it was 7.66; in the data set on biotinyl-Phe-oxazolone, 40; in the data set with biotinyl-Trp-oxazolone, 8.42; with biotinyl-Leu-oxazolone it was 8.08.

Regarding “AUUGCCGUGGUCAUCGAGUGA [Fam2.1 aminoacylation ribozyme variant]”, the self-aminoacylation worked out at 2.89 with biotinyl-Ile-oxazolone; 3.45 in the data set with biotinyl-Val-oxazolone; 4.92 in the data set with biotinyl-Met-oxazolone; 33.7 with biotinyl-Phe-oxazolone; 5.71 in the data set on biotinyl-Trp-oxazolone; 6.18 in the data set on biotinyl-Leu-oxazolone.

Consider “CCACACUUCAGGCAGUCGGUC [Fam1B.1 aminoacylation ribozyme variant]”, for which the self-aminoacylation stood at 1.48 in the data set on biotinyl-Ile-oxazolone; 1.48 in the data set on biotinyl-Val-oxazolone; 1.04 in the data set with biotinyl-Met-oxazolone; 0.789 in the data set on biotinyl-Phe-oxazolone; 1.32 in the data set on biotinyl-Trp-oxazolone; 1.62 in the data set with biotinyl-Leu-oxazolone.

For the sequence “AUUAACCUGCUCAUCGAGUGA [Fam2.1 aminoacylation ribozyme variant]”, the self-aminoacylation in the data set on biotinyl-Ile-oxazolone came to 1.55; in the data set with biotinyl-Val-oxazolone, 1.86; in the data set on biotinyl-Met-oxazolone, 2.38; with biotinyl-Phe-oxazolone, 2.51; in the data set on biotinyl-Trp-oxazolone it was 2.54; in the data set with biotinyl-Leu-oxazolone it was 2.5.

With “CUCCUGCAAACAAUCGGUCUG [Fam1A.1 aminoacylation ribozyme variant]”, the self-aminoacylation with biotinyl-Ile-oxazolone worked out at 0.858; with biotinyl-Val-oxazolone it was 1.06; in the data set on biotinyl-Met-oxazolone, 1.14; in the data set on biotinyl-Phe-oxazolone, 4; with biotinyl-Trp-oxazolone, 0.784; in the data set with biotinyl-Leu-oxazolone, 0.904.

Take “AUUCGCCUAGGUCAACGGGUG [Fam2.2 aminoacylation ribozyme variant]”: the self-aminoacylation in the data set with biotinyl-Ile-oxazolone stood at 2.76; with biotinyl-Val-oxazolone, 2.72; in the data set on biotinyl-Met-oxazolone, 4.66; with biotinyl-Phe-oxazolone, 27.8; with biotinyl-Trp-oxazolone, 3.75; in the data set with biotinyl-Leu-oxazolone it was 6.03.

“CCACACUUUAAGCAAUGGGUC [Fam1B.1 aminoacylation ribozyme variant]”: the self-aminoacylation with biotinyl-Ile-oxazolone turned out to be 0.696; in the data set with biotinyl-Val-oxazolone, 0.613; with biotinyl-Met-oxazolone, 0.686; in the data set with biotinyl-Phe-oxazolone, 0.774; in the data set with biotinyl-Trp-oxazolone, 0.612; in the data set with biotinyl-Leu-oxazolone, 0.618.

Turning to “CCACACUUCAAGCAAUCGUUG [Fam1B.1 aminoacylation ribozyme variant]”, the self-aminoacylation stood at 0.944 in the data set with biotinyl-Ile-oxazolone; 0.908 in the data set with biotinyl-Val-oxazolone; 0.877 in the data set on biotinyl-Met-oxazolone; 1.26 in the data set on biotinyl-Phe-oxazolone; 1.15 in the data set with biotinyl-Trp-oxazolone; 0.776 in the data set on biotinyl-Leu-oxazolone.

As to “AAUCACCUAGGUGAUCGGGUG [Fam2.2 aminoacylation ribozyme variant]”, the self-aminoacylation was 4.6 with biotinyl-Ile-oxazolone; 4.03 in the data set on biotinyl-Val-oxazolone; 5.43 with biotinyl-Met-oxazolone; 27.7 in the data set with biotinyl-Phe-oxazolone; 5.05 in the data set on biotinyl-Trp-oxazolone; 4.84 in the data set with biotinyl-Leu-oxazolone.

As to “AUUCACCAAGGUCAUCGGGAG [Fam2.2 aminoacylation ribozyme variant]”, the self-aminoacylation is 1.36 with biotinyl-Ile-oxazolone; 1.11 with biotinyl-Val-oxazolone; 1.19 with biotinyl-Met-oxazolone; 4.38 in the data set on biotinyl-Phe-oxazolone; 1.27 in the data set with biotinyl-Trp-oxazolone; 1.57 with biotinyl-Leu-oxazolone.

As to “AUUCACCUAGAGCAUCGGGUG [Fam2.2 aminoacylation ribozyme variant]”, the self-aminoacylation with biotinyl-Ile-oxazolone is 1.76; with biotinyl-Val-oxazolone it was 2.06; in the data set on biotinyl-Met-oxazolone, 2.34; in the data set with biotinyl-Phe-oxazolone, 12.4; with biotinyl-Trp-oxazolone, 1.64; with biotinyl-Leu-oxazolone, 2.43.

With “AUUACCCUGGUCCUAGAGUGA [Fam2.1 aminoacylation ribozyme variant]”, the self-aminoacylation in the data set with biotinyl-Ile-oxazolone stood at 4.03; in the data set on biotinyl-Val-oxazolone, 4.85; with biotinyl-Met-oxazolone it was 9.27; in the data set on biotinyl-Phe-oxazolone it was 45.8; in the data set with biotinyl-Trp-oxazolone it was 10.8; in the data set with biotinyl-Leu-oxazolone, 9.4.

As to “CUAAUUCAAACAAUCCGUCUG [Fam1A.1 aminoacylation ribozyme variant]”, the self-aminoacylation in the data set with biotinyl-Ile-oxazolone was determined as 0.682; in the data set with biotinyl-Val-oxazolone, 0.764; in the data set with biotinyl-Met-oxazolone, 0.635; in the data set on biotinyl-Phe-oxazolone it was 0.937; with biotinyl-Trp-oxazolone it was 0.609; with biotinyl-Leu-oxazolone it was 0.578.

For the sequence “GUACUUCAAACAAUCGAUCUG [Fam1A.1 aminoacylation ribozyme variant]”, the self-aminoacylation in the data set with biotinyl-Ile-oxazolone amounted to 1.18; in the data set with biotinyl-Val-oxazolone, 0.987; in the data set with biotinyl-Met-oxazolone, 0.863; in the data set with biotinyl-Phe-oxazolone, 1.72; in the data set with biotinyl-Trp-oxazolone it was 1.64; in the data set with biotinyl-Leu-oxazolone it was 0.862.

For the sequence “AAUCACCUCGGUCAUCGGGUG [Fam2.2 aminoacylation ribozyme variant]”, the self-aminoacylation amounted to 4.07 in the data set with biotinyl-Ile-oxazolone; 5.23 in the data set with biotinyl-Val-oxazolone; 4.76 in the data set on biotinyl-Met-oxazolone; 31.2 in the data set with biotinyl-Phe-oxazolone; 7.61 with biotinyl-Trp-oxazolone; 4.99 in the data set with biotinyl-Leu-oxazolone.

As for “CCACACAUCAAGCAACCGGUC [Fam1B.1 aminoacylation ribozyme variant]”, the self-aminoacylation amounted to 1.4 in the data set on biotinyl-Ile-oxazolone; 1.13 in the data set with biotinyl-Val-oxazolone; 1.21 in the data set on biotinyl-Met-oxazolone; 1.29 in the data set with biotinyl-Phe-oxazolone; 1.14 in the data set with biotinyl-Trp-oxazolone; 0.817 with biotinyl-Leu-oxazolone.

In the case of “AUUACCCUUGUCAUCGAGUGG [Fam2.1 aminoacylation ribozyme variant]”, the self-aminoacylation with biotinyl-Ile-oxazolone is 1.25; with biotinyl-Val-oxazolone it was 1.54; in the data set with biotinyl-Met-oxazolone, 2.03; in the data set with biotinyl-Phe-oxazolone, 1.98; in the data set with biotinyl-Trp-oxazolone, 1; in the data set on biotinyl-Leu-oxazolone, 1.85.

As to “AUUCACCUAAGUCGUCGGGUG [Fam2.2 aminoacylation ribozyme variant]”, the self-aminoacylation in the data set on biotinyl-Ile-oxazolone came to 1.88; in the data set on biotinyl-Val-oxazolone it was 1.87; with biotinyl-Met-oxazolone, 2.18; in the data set on biotinyl-Phe-oxazolone, 10.1; in the data set on biotinyl-Trp-oxazolone it was 2.02; in the data set on biotinyl-Leu-oxazolone, 2.55.

Regarding “AUUCACCCACGUCAUCGGGUG [Fam2.2 aminoacylation ribozyme variant]”, the self-aminoacylation in the data set on biotinyl-Ile-oxazolone worked out at 2.76; in the data set on biotinyl-Val-oxazolone, 3.23; in the data set with biotinyl-Met-oxazolone, 3.91; in the data set on biotinyl-Phe-oxazolone it was 37.1; in the data set on biotinyl-Trp-oxazolone, 3.99; with biotinyl-Leu-oxazolone, 6.88.

As to “AAGUUUGCCAAUAUUCGCAAG [Fam3.1 aminoacylation ribozyme variant]”, the self-aminoacylation in the data set with biotinyl-Ile-oxazolone was determined as 1.51; in the data set with biotinyl-Val-oxazolone it was 1.07; in the data set on biotinyl-Met-oxazolone, 1.35; with biotinyl-Phe-oxazolone it was 3.77; in the data set on biotinyl-Trp-oxazolone, 1.45; in the data set on biotinyl-Leu-oxazolone it was 1.07.
